We go through 3 proteins from publication doi:10.1101/2020.01.07.896506 (bioRxiv, 2020).

The data set “native gel or EMSA” concerns the molecule itself. Kind of data set: native gel or EMSA. A general note: Mobility shift assays separate free from complexed probe on a gel.
The data set “SEC” concerns the molecule itself. Description: SEC. Background: SEC sorts molecules by how far they enter the pores of the column.

B1: recombinant GRXS17 (glutaredoxin GRXS17, Arabidopsis thaliana) (natural protein, UniProt Q9ZPH2 1-488, looked up)
chain: MSGTVKDIVSKAELDNLRQSGAPVVLHFWASWCDASKQMDQVFSHLATDFPRAHFFRVEAEEHPEISEAYSVAAVPYFVFFKDGKTVDTLEGADPSSLANKVGKVAGSSTSAEPAAPASLGLAAGPTILETVKENAKASLQDRAQPVSTADALKSRLEKLTNSHPVMLFMKGIPEEPRCGFSRKVVDILKEVNVDFGSFDILSDNEVREGLKKFSNWPTFPQLYCNGELLGGADIAIAMHESGELKDAFKDLGITTVGSKESQDEAGKGGGVSSGNTGLSETLRARLEGLVNSKPVMLFMKGRPEEPKCGFSGKVVEILNQEKIEFGSFDILLDDEVRQGLKVYSNWSSYPQLYVKGELMGGSDIVLEMQKSGELKKVLTEKGITGEQSLEDRLKALINSSEVMLFMKGSPDEPKCGFSSKVVKALRGENVSFGSFDILTDEEVRQGIKNFSNWPTFPQLYYKGELIGGCDIIMELSESGDLKATLSE
As a reminder, the stoichiometry N is the number of molecules, sites or subunits per partner or assembly. Turning to B1, the “stoichiometry N” value in “native gel or EMSA” came to 2.

B2: recombinant GRXS17-C33S (natural protein, Arabidopsis thaliana, UniProt Q9ZPH2 1-488, looked up)
chain: MSGTVKDIVSKAELDNLRQSGAPVVLHFWASWSDASKQMDQVFSHLATDFPRAHFFRVEAEEHPEISEAYSVAAVPYFVFFKDGKTVDTLEGADPSSLANKVGKVAGSSTSAEPAAPASLGLAAGPTILETVKENAKASLQDRAQPVSTADALKSRLEKLTNSHPVMLFMKGIPEEPRCGFSRKVVDILKEVNVDFGSFDILSDNEVREGLKKFSNWPTFPQLYCNGELLGGADIAIAMHESGELKDAFKDLGITTVGSKESQDEAGKGGGVSSGNTGLSETLRARLEGLVNSKPVMLFMKGRPEEPKCGFSGKVVEILNQEKIEFGSFDILLDDEVRQGLKVYSNWSSYPQLYVKGELMGGSDIVLEMQKSGELKKVLTEKGITGEQSLEDRLKALINSSEVMLFMKGSPDEPKCGFSSKVVKALRGENVSFGSFDILTDEEVRQGIKNFSNWPTFPQLYYKGELIGGCDIIMELSESGDLKATLSE
On to B2, for which the binding result in the data set “SEC” was “binds”.

B3: recombinant GRXS17-C33S/C179S/C309S/C416S (natural protein, Arabidopsis thaliana, UniProt Q9ZPH2 1-488, looked up)
chain: MSGTVKDIVSKAELDNLRQSGAPVVLHFWASWSDASKQMDQVFSHLATDFPRAHFFRVEAEEHPEISEAYSVAAVPYFVFFKDGKTVDTLEGADPSSLANKVGKVAGSSTSAEPAAPASLGLAAGPTILETVKENAKASLQDRAQPVSTADALKSRLEKLTNSHPVMLFMKGIPEEPRSGFSRKVVDILKEVNVDFGSFDILSDNEVREGLKKFSNWPTFPQLYCNGELLGGADIAIAMHESGELKDAFKDLGITTVGSKESQDEAGKGGGVSSGNTGLSETLRARLEGLVNSKPVMLFMKGRPEEPKSGFSGKVVEILNQEKIEFGSFDILLDDEVRQGLKVYSNWSSYPQLYVKGELMGGSDIVLEMQKSGELKKVLTEKGITGEQSLEDRLKALINSSEVMLFMKGSPDEPKSGFSSKVVKALRGENVSFGSFDILTDEEVRQGIKNFSNWPTFPQLYYKGELIGGCDIIMELSESGDLKATLSE
Take B3: the “stoichiometry N” value in the data set “SEC” was 2.
